Assay [1] has as its target T1, FcγRIa extracellular domain with C-terminal His tag (human, UniProt P12314 16-292).
T1 construct: extracellular domain; Expressed in FreeStyle293 cells; analyte in the SPR assay; also called FcgRI; 1a
Nature of the assay: SPR (Biacore), relative binding, HeCon Ab = 100.

Assay [2] deals with T2, FcγRIIb extracellular domain with C-terminal His tag (human, UniProt P31994 43-217).
T2 construct: extracellular domain; Expressed in FreeStyle293 cells; analyte in the SPR assay; also called FcgRIIb; 2b
T2 sequence (looked up): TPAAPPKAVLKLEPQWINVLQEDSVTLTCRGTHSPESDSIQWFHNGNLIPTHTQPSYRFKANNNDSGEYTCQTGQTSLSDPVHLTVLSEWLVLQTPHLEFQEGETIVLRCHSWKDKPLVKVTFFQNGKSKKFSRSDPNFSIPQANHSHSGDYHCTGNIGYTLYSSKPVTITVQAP
Nature of the assay: SPR (Biacore), relative binding, HeCon Ab = 100. A general note: Surface plasmon resonance follows binding to a sensor surface in real time, without labels.

Assay [3] addresses T1, FcγRIa extracellular domain with …. Nature of the assay: SPR (Biacore); He/Con_1a divided by He/Con_2b (FcγRIa against FcγRIIb).
The target of assay [4] is T3, FcγRIIa R (human, UniProt P12318 34-217).
T3 construct: extracellular domain; also called FcgRIIa R; FcγRIIa type R; not shown: His tag at the C terminus
T3 sequence (looked up): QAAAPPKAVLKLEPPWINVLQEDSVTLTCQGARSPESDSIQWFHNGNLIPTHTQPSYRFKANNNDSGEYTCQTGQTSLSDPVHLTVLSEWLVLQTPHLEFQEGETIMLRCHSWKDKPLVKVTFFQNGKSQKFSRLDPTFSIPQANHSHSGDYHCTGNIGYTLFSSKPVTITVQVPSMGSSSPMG
In words: SPR (Biacore T100); He/Con_2aR divided by He/Con_2b (FcγRIIa R over FcγRIIb). On the procedure:
(§1) The heterodimerized antibodies He Abs in which one of the H chains was introduced with an alteration were assayed for their binding activities to each activating FcγR and inhibitory FcγR according to the method described in Example 4. […] The activating FcγRs in FIGS. 26, 27, 28, and 29 are FcγRIa, FcγRIIa (R), FcγRIIa (H), and FcγRIIIa, respectively.
(§2) Analysis of interaction between objective antibody and the FcγR was carried out using Biacore T100 (GE Healthcare). HBS-EP+ (GE Healthcare) was used as the running buffer, and the measurement temperature was set to 25° C. Chips produced by immobilizing the antigen peptide by the amine coupling method to a Series S Sencor Chip CM5 (GE Healthcare), or alternatively, chips produced by allowing preliminarily biotinylated antigen peptides to interact with and immobilize onto a Series S Sensor Chip SA (certified) (GE Healthcare) were used. Antibodies of interest were captured onto an antigen peptide-immobilized chip, and allowed to interact to each FcγR diluted with running buffer. To regenerate and repeatedly use the chip, the antibodies captured on the chip were washed off by reacting 10 mM glycine-HCl, pH 1.5.

Assay [5] deals with T3, FcγRIIa R. Nature of the assay: SPR (Biacore T100), antibody captured on antigen peptide chip, FcγR as analyte; binding relative to GpH7-A5/GpH7-B3/GpL16-k0 = 100. On the procedure:
as §1, §2

A further assay has as its target T4, FcγRIIb (human, UniProt P31994 43-217).
T4 construct: extracellular domain; also called FcgRIIb; 2b; not shown: His tag at the C terminus
T4 sequence (looked up): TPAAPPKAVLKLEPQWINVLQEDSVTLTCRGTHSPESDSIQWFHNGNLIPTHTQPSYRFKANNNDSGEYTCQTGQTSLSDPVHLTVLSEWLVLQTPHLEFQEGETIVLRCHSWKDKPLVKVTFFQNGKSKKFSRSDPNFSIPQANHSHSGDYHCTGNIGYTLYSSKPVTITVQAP
The description is as above. As to the method:
as §1, §2

T1 sequence (P12314 16-292): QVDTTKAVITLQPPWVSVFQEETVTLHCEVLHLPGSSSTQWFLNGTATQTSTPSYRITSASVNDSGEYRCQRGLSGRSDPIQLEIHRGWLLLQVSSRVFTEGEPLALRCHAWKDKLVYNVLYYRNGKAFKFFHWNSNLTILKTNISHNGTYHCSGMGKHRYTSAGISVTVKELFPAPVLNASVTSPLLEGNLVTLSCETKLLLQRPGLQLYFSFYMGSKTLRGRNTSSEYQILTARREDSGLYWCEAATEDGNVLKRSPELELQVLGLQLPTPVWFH

B1: GpH7-A5/GpH7-B3 variant G236_03V/GpL16-k0 (He Ab) (antibody, human IgG1, kappa)
heavy 1: not shown
heavy 2: not shown
light: DIVMTQSPLSLPVTPGEPASISCQASESLVHSNRNTYLHWYLQKPGQSPQLLIYKVSNRFSGVPDRFSGSGSGTDFTLKISRVEAEDVGVYYCSQNTHVPPTFGQGTKVEIERTVAAPSVFIFPPSDEQLKSGTASVVCLLNNFYPREAKVQWKVDNALQSGNSQESVTEQDSKDSTYSLSSTLTLSKADYEKHKVYACEVTHQGLSSPVTKSFNRGEC
notes: He Ab: mutation in one H chain only
In the case of B1, the He/Con_1a in assay [1] was 89.9 % of HeCon Ab (=100). In assay [2], the He/Con_2b was 35.3 % of HeCon Ab (=100). For the same molecule, the “He_1a/2b (Ia/IIb)” value in assay [3] worked out at 2.55 ratio.

B2: GpH7-A5/GpH7-B3 variant L234_06M/GpL16-k0 (He Ab) (antibody, human IgG1, kappa)
heavy 1: not shown
heavy 2: not shown
light: DIVMTQSPLSLPVTPGEPASISCQASESLVHSNRNTYLHWYLQKPGQSPQLLIYKVSNRFSGVPDRFSGSGSGTDFTLKISRVEAEDVGVYYCSQNTHVPPTFGQGTKVEIERTVAAPSVFIFPPSDEQLKSGTASVVCLLNNFYPREAKVQWKVDNALQSGNSQESVTEQDSKDSTYSLSSTLTLSKADYEKHKVYACEVTHQGLSSPVTKSFNRGEC
notes: as for B1
For the molecule B2, the He/Con_1a in assay [1] was 104 % of HeCon Ab (=100). The He/Con_2b in assay [2] was 78.5 % of HeCon Ab (=100). In addition, the “He_1a/2b (Ia/IIb)” value in assay [3] worked out at 1.32 ratio.

B3: GpH7-A5/GpH7-B3 variant L234_03V/GpL16-k0 (He Ab) (antibody, human IgG1, kappa)
heavy 1: not shown
heavy 2: not shown
light: DIVMTQSPLSLPVTPGEPASISCQASESLVHSNRNTYLHWYLQKPGQSPQLLIYKVSNRFSGVPDRFSGSGSGTDFTLKISRVEAEDVGVYYCSQNTHVPPTFGQGTKVEIERTVAAPSVFIFPPSDEQLKSGTASVVCLLNNFYPREAKVQWKVDNALQSGNSQESVTEQDSKDSTYSLSSTLTLSKADYEKHKVYACEVTHQGLSSPVTKSFNRGEC
notes: as for B1
As to B3, the He/Con_1a in assay [1] was 104 % of HeCon Ab (=100). Also, the He/Con_2b in assay [2] was 73.1 % of HeCon Ab (=100). Also, the “He_1a/2b (Ia/IIb)” value in assay [3] was determined as 1.43 ratio.

B4: GpH7-A5/GpH7-B3 variant L234_13S/GpL16-k0 (He Ab) (antibody, human IgG1, kappa)
heavy 1: not shown
heavy 2: not shown
light: DIVMTQSPLSLPVTPGEPASISCQASESLVHSNRNTYLHWYLQKPGQSPQLLIYKVSNRFSGVPDRFSGSGSGTDFTLKISRVEAEDVGVYYCSQNTHVPPTFGQGTKVEIERTVAAPSVFIFPPSDEQLKSGTASVVCLLNNFYPREAKVQWKVDNALQSGNSQESVTEQDSKDSTYSLSSTLTLSKADYEKHKVYACEVTHQGLSSPVTKSFNRGEC
notes: as for B1
As to B4, the He/Con_1a in assay [1] was 96.9 % of HeCon Ab (=100). Also, the He/Con_2b in assay [2] is 59.3 % of HeCon Ab (=100). Further, the “He_1a/2b (Ia/IIb)” value in assay [3] stood at 1.63 ratio.

B5: GpH7-A5/GpH7-B3 variant L234_05P/GpL16-k0 (He Ab) (antibody, human IgG1, kappa)
heavy 1: not shown
heavy 2: not shown
light: DIVMTQSPLSLPVTPGEPASISCQASESLVHSNRNTYLHWYLQKPGQSPQLLIYKVSNRFSGVPDRFSGSGSGTDFTLKISRVEAEDVGVYYCSQNTHVPPTFGQGTKVEIERTVAAPSVFIFPPSDEQLKSGTASVVCLLNNFYPREAKVQWKVDNALQSGNSQESVTEQDSKDSTYSLSSTLTLSKADYEKHKVYACEVTHQGLSSPVTKSFNRGEC
notes: as for B1
In the case of B5, the He/Con_1a in assay [1] is 99.9 % of HeCon Ab (=100). Also, the He/Con_2b in assay [2] is 72.9 % of HeCon Ab (=100). Besides, the “He_1a/2b (Ia/IIb)” value in assay [3] came out at 1.37 ratio.

B6: GpH7-A5/GpH7-B3 variant G236_05P/GpL16-k0 (He Ab) (antibody, human IgG1, kappa)
heavy 1: not shown
heavy 2: not shown
light: DIVMTQSPLSLPVTPGEPASISCQASESLVHSNRNTYLHWYLQKPGQSPQLLIYKVSNRFSGVPDRFSGSGSGTDFTLKISRVEAEDVGVYYCSQNTHVPPTFGQGTKVEIERTVAAPSVFIFPPSDEQLKSGTASVVCLLNNFYPREAKVQWKVDNALQSGNSQESVTEQDSKDSTYSLSSTLTLSKADYEKHKVYACEVTHQGLSSPVTKSFNRGEC
notes: as for B1
For B6, in assay [1], the He/Con_1a was 77 % of HeCon Ab (=100). The He/Con_2b in assay [2] is 19 % of HeCon Ab (=100). For the same molecule, the “He_1a/2b (Ia/IIb)” value in assay [3] turned out to be 4.05 ratio.

B7: GpH7-A5/GpH7-B3 variant S239_16H/GpL16-k0 (antibody, human IgG1, kappa)
heavy 1: not shown
heavy 2: not shown
light: DIVMTQSPLSLPVTPGEPASISCQASESLVHSNRNTYLHWYLQKPGQSPQLLIYKVSNRFSGVPDRFSGSGSGTDFTLKISRVEAEDVGVYYCSQNTHVPPTFGQGTKVEIERTVAAPSVFIFPPSDEQLKSGTASVVCLLNNFYPREAKVQWKVDNALQSGNSQESVTEQDSKDSTYSLSSTLTLSKADYEKHKVYACEVTHQGLSSPVTKSFNRGEC
notes: Heterodimerized anti-glypican-3 IgG1; mutation in one H chain only; also called He Ab
Regarding B7, in the assay with FcγRIIa R [4], the “He_2aR/2b (IIaR/IIb)” value was determined as 1.4 ratio. Further, the “He/Con_2aR (IIaR binding)” value with FcγRIIa R [5] was 69.2 % of control. Also, the “He/Con_2b (IIb binding)” value in the assay with FcγRIIb is 49.4 % of control.

The values are drawn from patent US20150344570A1 (published 2015).
